In assay [1] the target is T1, VLA-4 (integrin alpha4 beta1) on the human B cell line Ramos (human, UniProt P13612 34-1032; P05556 21-798).
T1 construct: whole, on cells; also called α4β1; VLA-4-expressing cells
In words: adhesion assay: inhibition of Ramos cell binding to immobilized rsVCAM1; molar value as printed. As for the experimental part:
(§1) Recombinant soluble VCAM1 was prepared and purified essentially as described by Lobb et al., 1991a. Soluble VCAM is diluted to 10 μg/ml in 0.05 M NaHCO₃, (15 mM NaHCO₃, 35 mM Na₂CO₃) pH 9.2. Then 50 μl/well is added into a Linbro Titertek polystyrene 96 well plate, flat bottom, Flow Labs catalog #76-231-05. The plate is incubated at 4° C. overnight.
(§2) For antibody blocking studies, 100 μl/well of murine HP1/2 MAb (anti-VLA-4) typically at 10 μg/ml in RPMI, 2% FBS are added to the rsVCAM1 coated plates and incubated for 30 minutes at room temperature prior to cell binding as described above. MAb HP1/2 (anti-VLA-4) or any recombinant humanized anti-VLA-4 antibody prepared as described herein must be preincubated with labelled cells for 30 minutes at room temperature prior to the cell binding. Concentrations of the antibodies preincubated will vary, but generally concentrations were in the range of about 1 μg/ml.
(§3) In these adhesion assays, murine HP1/2 inhibits Ramos cell binding completely at about 40 ng/ml, and half maximally at about 15 ng/ml ([…]). The results of adhesion assays as represented by the calculated half-maximal binding constants using humanized recombinant anti-VLA-4 antibodies made according to the present invention are shown in Table III. The number-(n) of experiments performed for each value is indicated for the recombinant humanized antibodies.

Assay [2] deals with T1, VLA-4 (integrin alpha4 beta1) on the …. In words: FACS, half-maximal binding to Ramos cells. As for the experimental part: (§4) Briefly, 25 μl cells (4×10^6/ml in FACS buffer (PBS 2% FBS, 0.1% NaN₃) on ice are added to 5 μl of 5 μg/ml FITC or phycoerythrin (PE) conjugated antibody in FACS buffer, and incubated in V-bottomed microtiter wells on ice for 30 minutes. To the wells, 125 μl of FACS buffer is added, the plates are centrifuged at 350×g for 5 minutes, and the supernatant is shaken off. To each well is added 125 μl FACS buffer, then the cells are transferred to 12×75 mm Falcon polystyrene tubes and resuspended to a final volume of 250 μl in FACS buffer. The mixture is analyzed on a Becton Dickinson FACStar. The results of the FACS assays as represented by the calculated half-maximal binding […] Using humanized recombinant anti-VLA-4 antibodies made according to the present invention are shown in Table III and the number (n) of experiments performed for each value is indicated for the humanized antibodies. […] Murine HP1/2 binds half-maximally to Ramos cells at 15 ng/ml. The AS/SVMDY humanized antibody binds half-maximally to Ramos cells at 12 ng/ml. Thus, the two assays (i.e., adhesion and FACS assays) show an excellent correlation for the murine antibody and the humanized AS/SVMDY antibody.
In general terms: A flow cytometer gives signals particle by particle.

For assay [3] the target is unchanged. In words: adhesion assay: inhibition of Ramos cell binding to immobilized rsVCAM1. As for the experimental part: as §1, §2
(§5) The potency of recombinant Stage 0, Stage 1, Stage 2 and Stage 3 antibodies having the VK1 (DQL) light chain that had been purified from stably transfected YB2/0 cell lines was measured in the adhesion assay, as shown in Table III.

The target is the same in assay [4]. In words: FACS, half-maximal binding to Ramos cells (n = 6). The protocol:
as §4

Assay [5] has the same target. In words: adhesion assay: inhibition of Ramos cell binding to immobilized rsVCAM1 (n = 14). As for the experimental part:
as §1, §2, §3

The target is the same in assay [6]. The experiment in a line: potency assay of Example 7; which assay is not stated.
Assay [7] has the same target. In words: FACS, half-maximal binding to Ramos cells (n = 3). As for the experimental part: as §4
Assay [8] has the same target. In words: adhesion assay: inhibition of Ramos cell binding to immobilized rsVCAM1 (n = 4). As for the experimental part:
as §1, §2, §5

Assay [9] shares this target. In words: adhesion assay: inhibition of Ramos cell binding to immobilized rsVCAM1 (n = 2). As for the experimental part: as §1, §2
Assay [10] shares this target. The experiment in a line: FACS, half-maximal binding to Ramos cells (n = 1). The protocol: as §4
Assay [11] has the same target. The experiment in a line: combination of adhesion and FACS assays (n = 3). As for the experimental part:
as §1, §2
as §4, with “Thus, the two assays (i.e., adhesion and FACS assays) show an excellent correlation for the murine antibody and the humanized AS/SVMDY antibody.” left out

For assay [12] the target is unchanged. In words: FACS, half-maximal binding to Ramos cells (n = 2). As for the experimental part:
as §4

For assay [13] the target is unchanged. The experiment in a line: adhesion assay: inhibition of Ramos cell binding to immobilized rsVCAM1 (n = 3). The protocol:
as §1, §2, §5

For assay [14] the target is unchanged. The experiment in a line: adhesion assay: inhibition of Ramos cell binding to immobilized rsVCAM1 (n = 6). As for the experimental part: as §1, §2, §5

Numbering of substitutions follows the chain as printed. Names may count otherwise. A value given as a limit tells only on which side of the number the result lay.

T1 sequence (P13612 34-1032, chain 1 of 2): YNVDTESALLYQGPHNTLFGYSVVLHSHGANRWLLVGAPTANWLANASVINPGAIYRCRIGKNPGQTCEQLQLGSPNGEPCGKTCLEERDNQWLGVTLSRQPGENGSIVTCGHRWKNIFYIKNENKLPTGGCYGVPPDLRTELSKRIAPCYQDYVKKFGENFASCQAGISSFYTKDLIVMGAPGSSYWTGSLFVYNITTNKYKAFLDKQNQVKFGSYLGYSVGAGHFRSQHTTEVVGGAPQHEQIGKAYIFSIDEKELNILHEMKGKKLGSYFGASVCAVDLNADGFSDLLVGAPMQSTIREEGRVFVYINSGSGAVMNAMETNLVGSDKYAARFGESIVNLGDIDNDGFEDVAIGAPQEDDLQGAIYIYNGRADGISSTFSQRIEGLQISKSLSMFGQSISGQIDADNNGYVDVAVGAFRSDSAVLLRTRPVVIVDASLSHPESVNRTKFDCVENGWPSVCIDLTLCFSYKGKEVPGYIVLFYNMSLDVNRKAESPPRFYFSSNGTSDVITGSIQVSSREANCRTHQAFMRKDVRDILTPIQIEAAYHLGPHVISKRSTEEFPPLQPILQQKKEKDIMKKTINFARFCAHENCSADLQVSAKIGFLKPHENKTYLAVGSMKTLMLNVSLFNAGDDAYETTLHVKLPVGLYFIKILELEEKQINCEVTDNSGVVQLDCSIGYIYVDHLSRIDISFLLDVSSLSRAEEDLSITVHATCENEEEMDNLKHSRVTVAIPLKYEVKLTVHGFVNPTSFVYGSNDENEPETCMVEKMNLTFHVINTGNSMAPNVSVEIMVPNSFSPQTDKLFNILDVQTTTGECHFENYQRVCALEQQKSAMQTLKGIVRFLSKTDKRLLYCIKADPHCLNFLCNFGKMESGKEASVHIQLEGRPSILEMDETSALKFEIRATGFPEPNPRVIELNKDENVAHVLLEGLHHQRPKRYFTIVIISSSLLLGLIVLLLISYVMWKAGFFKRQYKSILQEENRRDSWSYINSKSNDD
T1 sequence (P05556 21-798, chain 2 of 2): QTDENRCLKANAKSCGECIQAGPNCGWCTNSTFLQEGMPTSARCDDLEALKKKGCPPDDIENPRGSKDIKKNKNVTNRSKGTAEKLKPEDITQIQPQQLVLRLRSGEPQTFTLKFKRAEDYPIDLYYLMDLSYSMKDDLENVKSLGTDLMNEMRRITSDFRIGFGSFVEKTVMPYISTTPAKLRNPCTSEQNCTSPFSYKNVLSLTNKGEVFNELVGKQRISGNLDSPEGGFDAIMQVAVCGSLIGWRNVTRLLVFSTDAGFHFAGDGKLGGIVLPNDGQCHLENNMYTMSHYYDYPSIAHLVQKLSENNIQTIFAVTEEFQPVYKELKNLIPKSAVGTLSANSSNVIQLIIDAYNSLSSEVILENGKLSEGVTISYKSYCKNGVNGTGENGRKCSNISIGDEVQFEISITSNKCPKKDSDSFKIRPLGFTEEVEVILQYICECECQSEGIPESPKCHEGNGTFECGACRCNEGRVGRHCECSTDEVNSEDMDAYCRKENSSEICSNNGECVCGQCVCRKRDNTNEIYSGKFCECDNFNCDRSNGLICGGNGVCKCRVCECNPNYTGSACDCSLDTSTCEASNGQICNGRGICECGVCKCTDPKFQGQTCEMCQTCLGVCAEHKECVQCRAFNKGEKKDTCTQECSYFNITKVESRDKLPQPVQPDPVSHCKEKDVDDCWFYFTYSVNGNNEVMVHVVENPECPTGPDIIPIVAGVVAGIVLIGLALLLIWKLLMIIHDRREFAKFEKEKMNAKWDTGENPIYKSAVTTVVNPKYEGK

B1: murine HP1/2 monoclonal antibody (antibody, mouse IgG1, V domains shown)
VH: VKLQQSGAELVKPGASVKLFCTASGFNIKDTYMHWVKQRPQQGLEWIGRIDPASGDTKYDPKFQVKATITADTSSNTAWLQLSSLTSEDTAVYYCADGMWVSTGYALDFWGQGTTVTVSS
VL: SIVMTQTPKFLLVSAGDRVTITCKASQSVTNDVAWYQQKPGQSPKLLIYYASNRYTGVPDRFTGSGYGTDFTFTISTVQAEDLAVYFCQQDYSSPYTFGGGTKLEI
notes: The first eight residues of VH and the first four of VK in the listing are dictated by the PCR primers; also called MAb HP1/2 (anti-VLA-4); HP1/2 MAb
Take B1: the IC50 in assay [1] was around 10 µM; in assay [3], 0.015 µg/mL. The concentration giving a half-maximal response (EC50) in assay [2] was determined as 0.015 µg/mL.

B2: Stage 2 (Ser mutant) humanized anti-VLA-4 antibody with VK1 (DQL) light chain (antibody, V domains shown)
VH: QVQLQESGPGLVRPSQTLSLTCTVSGFNIKDTYMHWVRQPPGRGLEWIGRIDPASGDTKYDPKFQVRVTMLVDTSSNQFSLRLSSVTAADTAVYYCADGMWVSTGYALDFWGQGTTVTVSS
VL: DIQLTQSPSSLSASVGDRVTITCKASQSVTNDVAWYQQKPGKAPKLLIYYASNRYTGVPSRFSGSGSGTDFTFTISSLQPEDIATYYCQQDYSSPYTFGQGTKVEIKR
notes: Human IgG1 or IgG4 / kappa; also called Sage 2 (Ser mutant); S mutant
Turning to B2, a half-maximal response in [4] (EC50) required 0.047 µg/mL. In addition, in [5], the IC50 was 0.056 µg/mL. In addition, the “fold lower potency than murine HP1/2” value in assay [6] is around 4 fold.

B3: Stage 0-B humanized anti-VLA-4 antibody with VK1 (DQL) light chain (antibody, V domains shown)
VH: B2 VH with N28T, I29F, K30S, S76K
VL: DIQLTQSPSSLSASVGDRVTITCKASQSVTNDVAWYQQKPGKAPKLLIYYASNRYTGVPSRFSGSGSGTDFTFTISSLQPEDIATYYCQQDYSSPYTFGQGTKVEIK
notes: Human IgG1 or IgG4 heavy and human kappa constant regions; also called STAGE O-B; Stage 0 (Humanized heavy chain)
B3 yielded an IC50 in assay [3] above 1 µg/mL.

B4: humanized heavy chain of the Stage 2 construct (the Ser mutant) with murine light chain (antibody, V domains shown)
VH: B2 VH
VL: B1 VL
notes: also called Stage 2 heavy chain / murine light chain
On to B4, for which the “fold lower potency than murine HP1/2” value in [6] was around 2.5 fold.

B5: STAW/SVMDY humanized anti-VLA-4 antibody (antibody, V domains shown)
VH: B2 VH with Q78T, F79A, S80W
VL: B2 VL with D1S, Q3V, L4M, S60D, S67Y
notes: Human IgG1 or IgG4 / kappa; also called STAW with VK2 (SVMDY) light chain
On to B5, for which it took 0.035 µg/mL to reach a half-maximal effect in assay [7] (EC50). The molecule also came in with an IC50 in assay [8] of 0.025 µg/mL.

B6: Stage 3 KRS humanized anti-VLA-4 antibody with VK1 (DQL) light chain (antibody, V domains shown)
VH: B2 VH with R38K, P40R
VL: B2 VL
notes: Human IgG1 or IgG4 / kappa; also called VH-KRS
The molecule B6 showed a 50% inhibitory concentration (IC50) in assay [9] of 0.05 µg/mL. Also, in [10], the EC50 was 0.07 µg/mL. Besides, in assay [11], the “half-maximal binding constant (adhesion and FACS combined)” value (“half-maximal binding constant” below) turned out to be 57 ng/mL.

B7: AS/SVMDY humanized anti-VLA-4 antibody (antibody, V domains shown)
VH: B2 VH with V24A
VL: B2 VL with D1S, Q3V, L4M, S60D, S67Y
notes: Human IgG1 or IgG4 / kappa; also called AS mutant heavy chain combined with the improved light chain (SVMDY); antibody produced by ATCC CRL 11175
Regarding B7, the IC50 in assay [9] turned out to be 0.012 µg/mL. Moreover, the midpoint of the response in assay [12], the EC50, lay at 0.012 µg/mL.

B8: Stage 3 STAW humanized anti-VLA-4 antibody with VK1 (DQL) light chain (antibody, V domains shown)
VH: B2 VH with Q78T, F79A, S80W
VL: B2 VL
notes: Human IgG1 or IgG4 / kappa; also called VH-STAW
Take B8: in assay [13], the IC50 was found to be 0.03 µg/mL. This molecule came in with an EC50 in [7] of 0.033 µg/mL.

B9: Stage 0-C humanized anti-VLA-4 antibody with VK1 (DQL) light chain (antibody, V domains shown)
VH: B2 VH with N28T, I29F, K30S, S76K, D98R
VL: B3 VL
notes: Generated from Stage 0-A, which is Stage 1 with D94R; Kabat position 94 is linear position 98 of the humanized VH entries (CDR3 = 99-110); Human IgG1 or IgG4 / kappa; also called STAGE O-C; Stage 0 (Humanized heavy chain)
In assay [3], B9 displayed an IC50 above 1 µg/mL.

B10: Stage 3 SSE humanized anti-VLA-4 antibody with VK1 (DQL) light chain (antibody, V domains shown)
VH: B2 VH with A88S, A89E
VL: B2 VL
notes: Human IgG1 or IgG4 / kappa; also called VH-SSE
Turning to B10, the IC50 in [9] was 0.1 µg/mL. Moreover, the midpoint of the response in [10], the EC50, lay at 0.04 µg/mL. For the same molecule, the “half-maximal binding constant” value in [11] was determined as 80 ng/mL.

B11: Stage 3 AS humanized anti-VLA-4 antibody with VK1 (DQL) light chain (antibody, V domains shown)
VH: B2 VH with V24A
VL: B2 VL
notes: Human IgG1 or IgG4 / kappa; also called VH-AS
B11 yielded an IC50 in assay [9] of 0.028 µg/mL. Also, the EC50 in assay [12] was 0.014 µg/mL.

B12: Stage 3 KAITAS humanized anti-VLA-4 antibody with VK1 (DQL) light chain (antibody, V domains shown)
VH: B2 VH with R67K, V68A, M70I, L71T, V72A
VL: B2 VL
notes: Human IgG1 or IgG4 / kappa; also called VH-KAITAS
For B12, the IC50 in assay [9] came out at 0.085 µg/mL. Moreover, the EC50 in assay [10] worked out at 0.1 µg/mL. Besides, in assay [11], the “half-maximal binding constant” value amounted to 90 ng/mL.

B13: Stage 1 humanized anti-VLA-4 antibody with VK1 (DQL) light chain (antibody, V domains shown)
VH: B2 VH with S76K
VL: B2 VL
notes: Purified from YB2/0 cells; also called Stage 1 (Humanized heavy chain)
In turn, B13 came in with an IC50 in assay [14] of 0.228 µg/mL.

A word on the IC50: it is the midpoint of a concentration-inhibition curve. The low end stands for inhibition by little substance, the high end for a need for much substance. As a reminder, the EC50 is the midpoint of the concentration-response curve. Low readings indicate a more potent agent, high ones a less potent agent.

The record behind these values is patent US20030185819A1 (Biogen, published 2003).
